In patent US11819540B2, “Methods for treating and preventing neutrophil-derived net toxicity and thrombosis” (CHILDREN'S MEDICAL CENTER CORPORATION, priority 2011, dated 2023):
Entries after “also recorded” stand apart in the source; their conditions may differ.

Tested on: blood clots (fibrin and NET scaffold)
Assay: Clot formation in recalcified blood with or without PAF-activated neutrophils (thrombolysis)
Type: cell-based, human
Details: tPA 25 μg/mL
Experimental: Fibrin polymerization was induced in blood by recalcification and incubated either in the absence (medium) or presence of neutrophils preactivated by PAF to induce NET formation (neutrophils+PAF). Samples were treated with DNase to digest extracellular traps or tPA for fibrin digestion. […] (Scale bar, 1 cm.) The graph presents quantification of the clots by weighing. […] Data are presented as mean±SEM, n=4; (ANOVA; ***P<0.001). The first bar in each x-axis category represents the untreated samples, the second bar represents the samples treated with DNase, the third bar represents the samples treated with tPA, and the fourth bar represents the samples treated with tPA and DNase.
The relative susceptibility of NETs and fibrin to serve as scaffolds for blood clots to thrombolysis was examined (FIG. 20). Neutrophils were prestimulated with platelet-activating factor to release NETs with recalcified blood under stirring conditions. Two-hundred-fifty microliters of 5×10^6 neutrophils per milliliter in RPMI medium were activated by platelet activating factor (50 μM Calbiochem) at 37° C. under static conditions to induce NET formation. Control samples were 250 μL medium alone, 250 μL of unstimulated neutrophils, or 250 μL of 50 μM PAF in medium. After 10 min, 250 μL of recalcified (40 mM CaCl2) ACD anticoagulated blood was added. The mixture was incubated under stirring conditions (1,000 rpm) at 37° C. using an Eppendorf Thermomixer. Indicated samples were supplemented with tPA (25 μg/mL, Baxter) or DNase 1 (100 U/mL, Worthington Biochem). After 20 min, the blood was passed through a 100-μm cell strainer to isolate the clot. Images were acquired and the clot was determined. Thereafter, 10-μm frozen sections of the clot were prepared and stained for fibrinogen (mouse-antihuman-fibrinogen, Sigma) and VWF (rabbit-antihuman-VWF, Chemicon). Isotype control antibodies were used to determine background staining and DNA was labeled fluorescently by Hoechst 33258 (Invitrogen).

B1: tPA: tissue plasminogen activator (25 μg/mL, Baxter) for fibrin digestion (protein, UniProt P00750 36-562, looked up)
Tissue-type plasminogen …: SYQVICRDEKTQMIYQQHQSWLRPVLRSNRVEYCWCNSGRAQCHSVPVKSCSEPRCFNGGTCQQALYFSDFVCQCPEGFAGKCCEIDTRATCYEDQGISYRGTWSTAESGAECTNWNSSALAQKPYSGRRPDAIRLGLGNHNYCRNPDRDSKPWCYVFKAGKYSSEFCSTPACSEGNSDCYFGNGSAYRGTHSLTESGASCLPWNSMILIGKVYTAQNPSAQALGLGKHNYCRNPDGDAKPWCHVLKNRRLTWEYCDVPSCSTCGLRQYSQPQFRIKGGLFADIASHPWQAAIFAKHRRSPGERFLCGGILISSCWILSAAHCFQERFPPHHLTVILGRTYRVVPGEEEQKFEVEKYIVHKEFDDDTYDNDIALLQLKSDSSRCAQESSVVRTVCLPPADLQLPDWTECELSGYGKHEALSPFYSERLKEAHVRLYPSSRCTSQHLLNRTVTDNMLCAGDTRSGGPQANLHDACQGDSGGPLVCLNDGRMTLVGIISWGLGCGQKDVPGVYTKVTNYLDWIRDNMRP
B1 was tested, and the clot formation (absence of activated neutrophils (medium), DNase 100 U/mL) was “prevented clot formation”, the fibrin in clot (presence of PAF-activated neutrophils) was “removed fibrin” and the “clot formation / clot size” value (presence of PAF-activated neutrophils, DNase 100 U/mL) was “did not prevent clot formation; also recorded: reduced clot size”.
